Reference: PMC4797271, “The quorum-sensing regulator ComA from Bacillus subtilis activates transcription using topologically distinct DNA motifs”

Molecular target: T1, ComA (Bacillus subtilis, UniProt P14204 1-214)
T1 sequence: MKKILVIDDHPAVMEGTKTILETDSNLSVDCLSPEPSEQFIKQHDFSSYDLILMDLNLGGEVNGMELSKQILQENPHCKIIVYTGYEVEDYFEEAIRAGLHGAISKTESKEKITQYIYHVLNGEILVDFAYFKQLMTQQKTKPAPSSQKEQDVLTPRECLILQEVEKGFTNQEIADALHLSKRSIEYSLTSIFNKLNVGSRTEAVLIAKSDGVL
Experiment: EMSA; multiple complexes; EMSA: 10 mM HEPES pH 7.6, 2 mM MgCl2, 0.1 mM EDTA, 200 mM KCl, 5 mM DTT, 10% glycerol; 10 ng DNA in 15 ul, 20 min, room temperature
Details: protein: recombinant; tags: N-terminal His6 (from expression primer); chain copies: 2; label: 5' biotin on strand 1; blunt

B1: Ppel DR cluster (DR1-DR3) (dsDNA)
DNA 1: CGGCCTTTTGGTTTTTTTGCGGTCTTTGCGGTGGGATTTTGCAGAAT
DNA 2: ATTCTGCAAAATCCCACCGCAAAGACCGCAAAAAAACCAAAAGGCCG
binding result: binds
